# Experiment: yeast display, Sf9 membrane polyspecificity reagent, FACS + sequencing; frameworks hold sequencing errors
# Outline: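 Genes from sorted yeast were amplified by colony PCR, read by MiSeq 2 × 250 sequencing and filtered on CDR length. These cells carried a synthetic nanobody library in Saccharomyces cerevisiae BJ5465 and were sorted by FACS into low and high (top ~1%) gates on anti-HA and streptavidin fluorescence. Polyreactivity is labelled according to the gate of origin.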
row,Sequence,polyreactivity (PSR sort gate)
1,QVHLGESGGGLVQAGGSLRLSGAASGFTFAVNAMGWYRQAPWNERELVAGITSGGRTNYADSVKGRFTISRDNAKNTVYLQMTSLKPEVTAVYYCAAARRYSKGYVPPYYKYRYDYWGQGTHVTVSS,high polyreactivity
2,QVQLVESGGGLVQAGGSLRLSCAASGITFGFYTMGWYRQAPGKERELVAAITSGGSTSYADSVKGRFTISRDNAKNTVYLQMNSLKPEDTAVYYCAADYLNPFPPYQYWKQSYDYWGQGTQVTVSS,low polyreactivity
3,QVQLVESGGGLVQAGGSLRLSCAASGSILYVYAMGWYRQAPGKERELVAVITSGGSTNYADSVKGRFTISRDNAKNTVYLQMHSLKPEDSAVYHCAAYYDYDWKYAPSFDYGYWGQGTQVTVSS,low polyreactivity
4,QGQHVESGGGLVQAGGSLRLSCAASGLTFWVYAMGWYRQPRGKERELVAVITNGGRTNYADSVKGRFTISRDNAKNTVYLLMNSLKPEDSAVYYCARPNLLSGDYWGQGTQVTVSS,high polyreactivity
5,QVQLVESGGGLVQAGGSLRLSCAASGRIFWTNAMGWYRQAPGKERELVAAISRSGGSTYYADSVKGRFTISRDNAKNTVYLQMNSLKPEDTAVYYCAARAGRRPYDYWGQGTQVTVSS,high polyreactivity
6,QVQLVESGGGLVQAGGSLRLSCAASGSIFRKYAMGWYRQAPGKERELVAVITTDGSTNYADSVKGRFTISRDNAKNTVYLQMNSLKPEDTAVYYCNAVRSSIGTDNDYWGQGTQVTVSS,low polyreactivity
7,QVQLVESGGGLVQAGGSLRLSCAASGSIFIPNAMGWYRQAPGKERELVAAITSGGRTYYADSVKGRFTISRDNAKNTVYLQMNSLKPEDTAVYYCAARSGYRYVESDYWGQGTQVTVSS,high polyreactivity
8,QVQLVESGGGLVQAGGSLRLSCAASRSIFPLYAMGWYRQAPGKERELVAAITYSGGRTYYADSVKGRFTISRDNAKNTVYLQMISLKPEDTAVYYCNTRQRVIDDYWGQGTQVTVSS,high polyreactivity
9,QVQLVESGGGLVQAGGSLRLSCAASGNTFRRYAMGWYRQAPGKERELVAAISYRGGSTYYADSVKGRFTISRDNAQNTVYLQMNSLKPEDTAVSYCNARFATSVLYDYWGQGTQVTVSS,high polyreactivity
10,QVQLVESGGGLVQAGGSLRLSCAASGRIFSAYAMGGYRQAPGKGRELVAAISYSGGSTYYADSVKGRFTISRDNAKNTVYLQMNSLKPEDTAVYYCAASGPRWWRFGYWGQGTQVTVSS,low polyreactivity
11,QVQLVESGGGLVQAGGSLRLSCAASGSIFNDYAMGWYRQAPGKERELVAAITSSDGRTFYADSVKGRFTISRDNAKNTVYLQMNSLKPEDTAVYYCAAEWTSRYSTYEYWGQGTQVTVSS,low polyreactivity
12,QVQLVESGGGLVQAGGSLRLSWAASGSTFPYYAMGWYRQAPGKERELVAAISWSDANTYYADSVKGRFTISRDNAKNTVYLQMNSLKPEDTAVYYCAAEPYDRYGPYTGYGLNYWGQGTQVTVSS,low polyreactivity
13,QFQLVESGGGIVQAGGSLRIAVRPPDLPSTLNHLGWSRQAPGKERSVVAAITRGGSTNYADSVKGRFTISRDNAKNTVYLQMNSLKQEDTAVYYCAAPYAGWRDGGDYWGQGTQVTVSS,low polyreactivity
14,QVQLVESGGGLVQAGGSLRLSCAASGRTFGLNVMGWYRQAPGKERELVATISGVGSTNYADSVKGRFTISRDNAKNTVYLQMNSLKPEDTAVYYCDKDPHVGRWWDLYSPYYSWGQGTQVTVSS,low polyreactivity
15,QVHLVESGGGLVQAGGSLRLSCAASGSTFYENAMGWYIQAPGKERELVAGISRGGGSTYYADSVKGRFTISRDNAKNTVYLQMNSLKPEDSAVYYCAAGSRVQGGYWGQGTQVTVSS,low polyreactivity
16,QVQLVESGGGLVQAGGSHRLSCSGSGFSLTLNAMGWYRQAPGKERELVAAISGNGGRTYYADSVKGRFTISRDNAKNTVYLQMNSLKPEDTAVYYCAARYTRTPSDCSTRKFGYGYWGQRTQVTVSS,high polyreactivity
17,QVQLQERAAWCRRAGSLRLSCAASGNISDYYFMGWYRQAPGKERELVAAIAPGSNTYYADSVKGRFTISRDNAKNTVYLQMNSLKPEDTAVCFCAANSTQYSWFDYWGQGTQVPVSS,low polyreactivity
18,QVQLVESGGRLVQAGGSLRLSCAASGSTIVRNGMGWYRQAPGKERELVAAITRGGSTYYADSVKGRFTISRDNAKNTVYLQMNSLKPEDTAVYYCATYDPARSTQGYDYWGQGTQVTVSS,high polyreactivity
19,QVQLVESGGGLVQAGGSLRLSCAASGRIFNDYAMGWSRQAPGKERELVAVIRRSGVSTYYADSVKGRFTISRDNAKNTVYLQMNSLKPEDTAVYYCAAYGYWGQGTQVTVSS,low polyreactivity
20,QVQLVESGGGLVQAGGSLRLSCAASGRTFFKYAMGWYRQAPGKERELVATITSSGGITYADSVKGRFTISRDNAKNTVYLQMNSLKPEDTAVYYCNARVWVTHYSELNYWGQGTQLTVSS,low polyreactivity
21,QVQLVESGGGLVQAGGSLRLSCAASGRIFPHNAMGWYRQAPGNERELVAAISSHGGSTYYAVSVKGRFTISRDNAKNTVYLQMNSLKPEDTAVYYCAKYRYFAGDGDYWGQGTQVTVSS,low polyreactivity
22,QVQLVESGGGLVQAGGSLRLSCAASGSTIGDNAMGWYRQAPGIERELGASMSWSGASTYYADSVKGRFTISRDNAKNTVYLQMNCLKPDDTAVYYCGVYYSYYSHLYHMLFYYWGQGTQVTVSS,low polyreactivity

row,Sequence,polyreactivity (PSR sort gate)
1,QVQLVESGGGLVQAGGSLRLSCAASGFTFGSNTMGWYRQAPGKERELVAAITTSGDSTYYADSVKGRFTISRDNAKNTVYLQMNSLKPEDTAVYYCAARTYYQGGYYYWGPGTQVTVSS,high polyreactivity
2,QVQLVESGGGLVQAGGSLRLSCAASGRIFIWYAMGWYRQAPGKDRELVAAISTDGSPYYADSVKGRFTISRDNAKNTVYLQMNSLKPEDTAVYYCAAVPGYTHLWGGPFDYWGQGTQVTVSS,low polyreactivity
3,QVQLVESGGGLVQAGGSLRISCAASGIILSDNAMGWYRQAPGKEREFVAAITGSGGSTYYADSVKGRFTISRDNAKNTVYLQMNSLKPEDTAVYYCAADGPYGYYYGHYGYWGQGTQVTVSS,low polyreactivity
4,QVQLVESGGGLVQAGGSLRLSCAASGSIFPANAMGWYRQAPGKERELVAAINRDGITNYADSVKGRFTISRDNAKNTVYLQMNSLKPEDTAVYYCAAEFAWQWWEYGYWGQGTQVTVSS,low polyreactivity
5,QVQLVESGGGLVQAGGSLRLSCAASGNIFGVYAMGWYRQAPGKERELVAAITSGGTSTSYADSVKGRFTISRDNAKNTVYLQINSLKPEDTAVYYCATESSGKLSEYAYWGQGTQVTVSS,low polyreactivity
6,QVQLVESGGGLVQAGGSLRLSCAASGFIFDYYAMGWYRQAPGKERELVAAITWSGGSTYYADSVKGRFTISRDNAKYTVFLQMNSLKPEDTAVYYCNAYNWTYCEYEYWGQGTQVTVSS,high polyreactivity
7,QVHLVESGGGLVQAGGSLRLSCAASGRTFTGYAMGWYRQAPGKEREFVAAISSGGVRTYYADSVKGRFTISRDNAKNTVYLQMNSLKPEDTAVYYCNARQVYYRGTFRYSYDYWGQGTQVTVSS,high polyreactivity
8,QVQLVESGGGLVQAGGSLRLSCAASGSIFADNTMGWSRQAPGKERELVAAITSSGRTYYADSVTGRFTISRDNAKNTVYLQMKSLKPEDTAVYYCAAVIYFHDYSPYYYWGQGTQVTVSS,high polyreactivity
9,QVQLVESGGGLVQAGGSLRLSCAASGRTFGQYALGGSRKAPGKERELVATITRTARTNYADSVKGRFTISRDNAKNTVYLQMNSLKPEDTAVYYCAKGWPAIYGTYDYCGQGTQVTVSS,high polyreactivity
10,QVQLVESGGGLVQAGGSLRLSCAASGRTFRPNAMGWYRQAPGKERELVAAISRRGGSTNYADSVKGRFTISRDNAKNTVYLQMNSLKPEDTAVYYCNSRGRRGYDYWGQGTQVTVSS,high polyreactivity
11,QVQLVESWGGLFQAGGSLRLSCAASGRIWWNAMGWYIQSPGKERELVAAIRWSGGITRYADSVKGRFTFSGDNAKNTVYLQMKSLKPEDTAVYYCAARRNTVTGYQYYYWGQGTQVSVSS,high polyreactivity
12,QVQLVESGGGILQAGGSLRLSCAASGITFVVYAMGCYRQAPGKERELVDSITYSGGSTYYADSVKGRFTISRDNAKNTVYLQMISLKPEDTAFYYCNADGYSIYYLPYSDYDAYDYWGQGTQVTVSS,low polyreactivity
13,QDQLVESGGGLVQAGGSLRLSCAASGYIFLRNAMGWYRQAPGKERELVATISRTGRTNYADSVKGRFTISRDNAKNTVFLHMNSLKPEDTAVYYCAAASVFGRIRLWYDYWGQGTQVTVSS,high polyreactivity
14,QVQLVESGGGLVQAGGSLRLSCAASGYIFDKNAMGWYRQAPGKERELVAAITSSGGRTYYADSVKGRFTISRDNAKNTVYLQMNSLKPEDTAVYYCNKLYRTSGEYVYWGQGTQVTVSS,high polyreactivity
15,QVQLVESGGGLVQAGGSLSLSCAASGSTFRGYAMGWDRQAPGKERELVADSTYYADSVKGRFTISRDNAKNTVYFQMNCLKPEDTAVYYCNADIAGWGSQDGTDDYWGLGTQVTVSS,high polyreactivity
16,QVQLVESGGGLVQAGGSLRLSCAASGLIFDYNAMGWYRQAPGKEWELVAAISSGGSTYYADSVKGRFTISRDNANNTVYLQMNSLKPEDTAVYYCAARFSSYVRRYYYWGQGTQVTVSS,high polyreactivity
17,QVQLVESGGGLVQAGGSLRLSCAASGFTFIYYAMGWYRQAPGKERELVAAISRRGGSTYYADSVKGRFTISRDNAKNTVYLQMNSLKPEDTAVYYCAADYTSAILRSDYWGQGTQVTVSS,high polyreactivity
18,QVQLVESGGGLVQAGGSLRLSCAASGSTFGPYTMGWYRQAPGKERELVATISSGGSTYYADSVKGRFTISRDNAKNTVYLQMNSLKPEDTAVYYCARDSYWEMDYWGQGTQVTVSS,low polyreactivity
19,QVQLVESGGGLVQAGGSLRLSCAASGSIFGAYTMGWYRQAPGKEREFVAVISKGGTNTYYADSVKGRFTISRDNAKNTVYLQMNSLKPEDTAVYYCAARAYPTWRTYYYWGQGTQVTVSS,high polyreactivity
20,KVQLVESGGGLVQAGGSLRLSCAASGRTFPYYVMGWYRQAHGKERELVAAIDVGGGSTYYADSVKGRFTISRDNAKNTVYLQMNSLKPEVTAVYYCAAQVDYLAHYGYWGQGTQVTVSS,low polyreactivity
21,QVQLVESGGGLVQAGGSLRLSCAASGFTFVRNAMGWYRQAPGNERELVAALSTSAGSTYYADSVKGRFTISRDNAKNTVYLQMNSLKPEDTAVYYSAASASRYFVLAASGGIRYYYWGQGTQVTVSS,high polyreactivity

# From the nanobody polyreactivity screen of Harvey et al. (2022)
